For this data set, the target named is T1, TGF-β receptor I-K coil fusion protein (kinase domain).
T1 chain: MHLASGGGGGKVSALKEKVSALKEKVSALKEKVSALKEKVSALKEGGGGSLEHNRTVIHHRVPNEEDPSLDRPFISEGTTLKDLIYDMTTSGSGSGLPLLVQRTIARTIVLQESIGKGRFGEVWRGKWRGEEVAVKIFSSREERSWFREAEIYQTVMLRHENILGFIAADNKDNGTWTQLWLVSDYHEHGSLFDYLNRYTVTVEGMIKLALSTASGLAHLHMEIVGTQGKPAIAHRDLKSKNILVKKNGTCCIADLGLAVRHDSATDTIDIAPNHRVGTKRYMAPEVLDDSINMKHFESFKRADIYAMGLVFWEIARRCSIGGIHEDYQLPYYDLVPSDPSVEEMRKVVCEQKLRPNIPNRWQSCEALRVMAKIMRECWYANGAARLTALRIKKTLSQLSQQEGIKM

Data on one protein can be found in US20070154994.

B1: TGF-β receptor II-E coil fusion protein (kinase domain) (protein)
chain: MHLASGGGGGEVSALEKEVSALEKEVSALEKEVSALEKEVSALEKGGGGSLERVNRQQKLSSTWETGKTRKLMEFSEHCAIILEDDRSDISSTCANNINHNTELLPIELDTLVGKGRFAEVYKAKLKQNTSEQFETVAVKIFPYEEYASWKTEKDIFSDINLKHENILQFLTAEERKTELGKQYWLITAFHAKGNLQEYLTRHVISWEDLRKLGSSLARGIAHLHSDHTPCGRPKMPIVHRDLKSSNILVKNDLTCCLCDFGLSLRLDPTLSVDDLANSGQVGTARYMAPEVLESRMNLENAESFKQTDVYSMALVLWEMTSRCNAVGEVKDYEPPFGSKVREHPCVESMKDNVLRDRGRPEIPSFWLNHQGIQMVCETLTECWDHDPEARLTAQCVAERFSELEHLDRLSGRSCSEEKIPEDGSLNTTK
Consider B1, for which the “autophosphorylation with P33-gamma ATP, SDS-PAGE and phosphorimaging” value is given as “Lane 4 corresponding to the heterodimer shows the most autophosphorylation”.
